Here are results for one molecule from article PMC8081927.

In this test the target is Aβ1-42 fibrils (UniProt P05067). As to the kind of experiment: flow cytometry on beads; Aβ fibrils (1% biotinylated, 1 μM) immobilised on streptavidin Dynabeads, blocked with 10% milk; antibody dilutions in PBSB with 1% milk, 3 h, 25 °C; detected with goat anti-human Fc AF647; apparent affinity (EC50). In general terms: In flow cytometry, cells or beads pass a laser one at a time.

B1: crenezumab (variable domains grafted onto an IgG1 scaffold with a human Fc fragment) (antibody, V domains shown)
VH: EVQLVESGGGLVQPGGSLRLSCAASGFTFSSYGMSWVRQAPGKGLELVASINSNGGSTYYPDSVKGRFTISRDNAKNSLYLQMNSLRAEDTAVYYCASGDYWGQGTTVTVSS
VL: DIVMTQSPLSLPVTPGEPASISCRSSQSLVYSNGDTYLHWYLQKPGQSPQLLIYKVSNRFSGVPDRFSGSGSGTDFTLKISRVEAEDVGVYYCSQSTHVPWTFGQGTKVEIK
Regarding B1, the 50% effective concentration (EC50) – broadly, the midpoint of the concentration-response curve – was found to be 9 nM.
